The values below come from US20240132603A1 (HARBOUR BIOMED US, published 2024).

Like-named read-outs stand apart in the source and are kept apart here.

Experiment [1] deals with T1, human CCR8 (human, UniProt P51685 1-355).
T1 construct: whole, on cells; construct used for the overexpressing cell lines is not described; also called hCCR8
The experiment in a line: FACS, CHO-K1-hCCR8 cells. As to the method:
(§1) Cells overexpressing human CCR8 were digested with pancreatin, counted and resuspended to a cell density of 1E6 cells/mL. The cell suspension was added to a 96-well V-bottom plate at 100 μL/well and centrifuged at 300 g for 5 min, and the supernatant was discarded. The anti-CCR8 antibodies provided herein was used as a primary antibody and diluted in a 5-fold gradient with an FACS buffer (DPBS containing 2% FBS) from 200 nM. The diluted primary antibody was added at 100 μL/well to resuspend the cells, and the mixture was incubated at 4° C. for 1 h. The plate was washed twice with DPBS and centrifuged at 300×g for 5 min, and the supernatant was discarded. The secondary antibody diluted in a 1:1000 ratio with an FACS buffer was added at 100 μL/well to suspend the cells, and the mixture was incubated at 4° C. for 40 min. The plate was washed twice with DPBS and centrifuged at 300×g for 5 min, and the supernatant was discarded. DPBS was added at 200 μL/well to suspend the cells, and the mixture was loaded on an FACS machine for analysis.
For orientation: Flow cytometry measures light scatter and fluorescence of single cells or particles in a stream.

A further experiment concerns the target T2, cynomolgus monkey CCR8 (cynomolgus monkey, UniProt G7NYJ2 1-355).
T2 construct: whole, on cells; also called CynoCCR8
The experiment in a line: FACS, CHO-K1-CynoCCR8 cells. As to the method: as §1, with “cynomolgus monkey CCR8, CHO-K1-CynoCCR8,” for “human CCR8”

The target in experiment [2] is T1, human CCR8. The experiment in a line: FACS, CHO-K1-hCCR8 cells. As to the method:
as §1
The source holds these as a separate data set.

T1 sequence (P51685 whole entry): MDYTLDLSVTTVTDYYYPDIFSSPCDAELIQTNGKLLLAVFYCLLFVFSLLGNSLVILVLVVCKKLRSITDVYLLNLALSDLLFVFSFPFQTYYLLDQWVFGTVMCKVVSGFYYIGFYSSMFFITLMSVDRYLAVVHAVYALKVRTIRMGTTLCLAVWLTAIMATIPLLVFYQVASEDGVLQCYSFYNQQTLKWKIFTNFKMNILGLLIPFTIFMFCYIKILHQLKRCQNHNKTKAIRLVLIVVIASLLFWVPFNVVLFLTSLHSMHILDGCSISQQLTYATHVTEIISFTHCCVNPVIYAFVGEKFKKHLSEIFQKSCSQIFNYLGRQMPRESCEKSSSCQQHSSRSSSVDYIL
T2 sequence (G7NYJ2 entry or part of it): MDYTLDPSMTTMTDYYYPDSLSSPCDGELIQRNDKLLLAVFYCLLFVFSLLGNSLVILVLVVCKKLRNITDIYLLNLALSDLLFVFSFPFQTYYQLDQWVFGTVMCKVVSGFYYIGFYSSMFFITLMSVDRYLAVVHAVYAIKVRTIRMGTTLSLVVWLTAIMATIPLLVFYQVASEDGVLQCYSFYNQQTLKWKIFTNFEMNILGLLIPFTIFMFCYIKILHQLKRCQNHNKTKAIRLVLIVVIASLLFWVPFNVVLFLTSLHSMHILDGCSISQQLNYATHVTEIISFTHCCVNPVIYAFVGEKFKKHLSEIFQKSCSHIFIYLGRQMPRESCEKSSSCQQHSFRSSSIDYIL

B1: PR005330 (antibody, human IgG1, kappa)
heavy: not shown
light: DIVMTQAATSVLVTPGESVSISCRSSKSLLYSNGNTYLYWFLQRPGQSPQLLIYRMSNLASGVPDRFSGSGSGTAFTLRISRVEAEDVGVYYCMQHLEYPFTFGGGTKLELKRTVAAPSVFIFPPSDEQLKSGTASVVCLLNNFYPREAKVQWKVDNALQSGNSQESVTEQDSKDSTYSLSSTLTLSKADYEKHKVYACEVTHQGLSSPVTKSFNRGEC
notes: called CCR8 chimeric antibody; human IgG1 constant region
For orientation: EC50 means the concentration needed to bring the measured effect to its halfway point. Molecule B1 yielded an EC50 with human CCR8 [1] of 470 pM.

B2: PR005333 (antibody, human IgG1, kappa)
heavy: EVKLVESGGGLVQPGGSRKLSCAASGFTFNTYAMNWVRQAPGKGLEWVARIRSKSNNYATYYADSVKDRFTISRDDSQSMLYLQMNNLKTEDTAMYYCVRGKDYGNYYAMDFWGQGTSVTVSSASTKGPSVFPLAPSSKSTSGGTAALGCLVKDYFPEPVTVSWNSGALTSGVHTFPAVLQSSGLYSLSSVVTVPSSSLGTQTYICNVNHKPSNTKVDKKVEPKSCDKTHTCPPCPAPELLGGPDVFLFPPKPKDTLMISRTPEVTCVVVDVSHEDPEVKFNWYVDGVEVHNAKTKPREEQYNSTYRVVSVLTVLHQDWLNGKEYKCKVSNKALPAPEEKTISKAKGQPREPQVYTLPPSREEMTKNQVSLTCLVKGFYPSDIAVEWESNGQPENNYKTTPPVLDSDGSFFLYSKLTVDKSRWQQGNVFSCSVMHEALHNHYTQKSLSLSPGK
light: DIVMTQAATSVLVTPGESVSISCRSSKSLLYSNGNTYLYWFLQRPGQSPQLLIYRMSNLASGVPDRFSGSGSGTAFTLRISRVEAEDVGVYYCMQHLEYPFTFGGGTKLELKRTVAAPSVFIFPPSDEQLKSGTASVVCLLNNFYPREAKVQWKVDNALQSGNSQESVTEQDSKDSTYSLSSTLTLSKADYEKHKVYACEVTHQGLSSPVTKSFNRGEC
notes: same VH/VL as PR005330, other heavy chain entry
In the experiment with human CCR8 [1], B2 displayed an EC50 of 520 pM.

B3: PR004324 (antibody, human IgG1, kappa, V domains shown)
VH: EVQLVESGGGLVQPKGSLKLSCAASGFTFNTYAMNWVRQAPGKGLEWVARIRSKSNNYATYYADSVKDRFTISRDDSQSMLYLQMNNLKTEDTAMYYCVRGKENGNYYAMDFWGQGTSVTVSA
VL: DIVMTQAAPSVPVTPGESVSISCRSSKSLLHSNAKIYLYWFLQRPGQSPQLLIYRMSNLASGVPDRFSGSGSGTAFTLRISRVEAEDVGVYYCMQHLEYPLTFGAGTKLEIKR
notes: PTM variant of PR004128, IgG1 with DE mutation
On to B3, for which the results for the 50% effective concentration (EC50) with cynomolgus monkey CCR8 and with human CCR8 [2] were 2300 pM and 670 pM, respectively.

B4: PR004325 (antibody, human IgG1, kappa, V domains shown)
VH: EVQLVESGGGLVQPKGSLKLSCAASGFTFNTYAMNWVRQAPGKGLEWVARIRSKSNNYATYYADSVKDRFTISRDDSQSMLYLQMNNLKTEDTAMYYCVRGKENGNYYAMDFWGQGTSVTVSA
VL: DIVMTQAAPSVPVTPGESVSISCRSSKSLLHSQGKIYLYWFLQRPGQSPQLLIYRMSNLASGVPDRFSGSGSGTAFTLRISRVEAEDVGVYYCMQHLEYPLTFGAGTKLEIKR
notes: as for B3
Turning to B4, the EC50 was found to be 3890 pM in the experiment with cynomolgus monkey CCR8 and 1310 pM with human CCR8 [2].

B5: PR004328 (antibody, human IgG1, kappa, V domains shown)
VH: EVQLVESGGGLVQPKGSLKLSCAASGFTFSTYAMNWVRQAPGKGLEWVARIRSKSNNYATYYADSVKDRFTISRDDSQSMLYLQMNNLKTEDTAMYYCVRGKENGNYYAMDFWGQGTSVTVSA
VL: DIVMTQAAPSVPVTPGESVSISCRSSKSLLHSNGKIYLYWFLQRPGQSPQLLIYRMSNLASGVPDRFSGSGSGTAFTLRISRVEAEDVGVYYCMQHLEYPLTFGAGTKLEIKR
notes: as for B3
On to B5, for which the values for the EC50 with cynomolgus monkey CCR8 and with human CCR8 [2] were 6050 pM and 1000 pM, respectively.

B6: PR004336 (antibody, human IgG1, kappa, V domains shown)
VH: EVQLVESGGGLVQPGGSLKLSCAASGFTFNTYAMNWVRQASGKGLEWVGRIRSKSNNYATYYADSVKDRFTISRDDSKSTLYLQMNSLKTEDTAVYYCVRGKENGNYYAMDFWGQGTTVTVSS
VL: DIVMTQAAPSVPVTPGESVSISCRSSKSLLHSNGKIYLYWFLQRPGQSPQLLIYRMSNLASGVPDRFSGSGSGTAFTLRISRVEAEDVGVYYCMQHLEYPLTFGAGTKLEIKR
notes: heavy-chain semi-humanized variant of PR004128, IgG1 with DE mutation
As for B6, the concentration for a half-maximal effect (EC50) in the experiment with cynomolgus monkey CCR8 is 3330 pM; in the experiment with human CCR8 [2] it was 790 pM.

B7: PR004327 (antibody, human IgG1, kappa, V domains shown)
VH: EVQLVESGGGLVQPKGSLKLSCAASGFTFQTYAMNWVRQAPGKGLEWVARIRSKSNNYATYYADSVKDRFTISRDDSQSMLYLQMNNLKTEDTAMYYCVRGKENGNYYAMDFWGQGTSVTVSA
VL: DIVMTQAAPSVPVTPGESVSISCRSSKSLLHSNGKIYLYWFLQRPGQSPQLLIYRMSNLASGVPDRFSGSGSGTAFTLRISRVEAEDVGVYYCMQHLEYPLTFGAGTKLEIKR
notes: as for B3
As for B7, the figures for the EC50 with cynomolgus monkey CCR8 and with human CCR8 [2] were 13400 pM and 1080 pM, respectively.

B8: PR004337 (antibody, human IgG1, kappa, V domains shown)
VH: EVQLVESGGGLVQPGGSLKLSCAASGFTFNTNAMNWVRQASGKGLEWVGRIRSKSNNYATYYADSVKDRFTISRDDSKSTLYLQMNSLKTEDTAVYYCVRGKENGNYYAMDFWGQGTTVTVSS
VL: DIVMTQAAPSVPVTPGESVSISCRSSKSLLHSNGKIYLYWFLQRPGQSPQLLIYRMSNLASGVPDRFSGSGSGTAFTLRISRVEAEDVGVYYCMQHLEYPLTFGAGTKLEIKR
notes: as for B6
In the case of B8, the EC50 in the experiment with cynomolgus monkey CCR8 was 5470 pM; in the experiment with human CCR8 [2], 760 pM.

B9: PR004326 (antibody, human IgG1, kappa, V domains shown)
VH: EVQLVESGGGLVQPKGSLKLSCAASGFTFNTYAMNWVRQAPGKGLEWVARIRSKSNNYATYYADSVKDRFTISRDDSQSMLYLQMNNLKTEDTAMYYCVRGKENANYYAMDFWGQGTSVTVSA
VL: DIVMTQAAPSVPVTPGESVSISCRSSKSLLHSNGKIYLYWFLQRPGQSPQLLIYRMSNLASGVPDRFSGSGSGTAFTLRISRVEAEDVGVYYCMQHLEYPLTFGAGTKLEIKR
notes: as for B3
B9: the EC50 in the experiment with cynomolgus monkey CCR8 is 750 pM; with human CCR8 [2], 370 pM.

B10: PR005329 (antibody, human IgG1, kappa)
heavy: not shown
light: DIVMTQAAPSVPVTPGESVSISCRSSKSLLHSNGNTYLYWFLQRPGQSPQLLIYRMSNLASGVPDRFSSSGSGTDFTLRISRVEAEDVGVYYCMQHLEYPFTFGAGTKLEIKRTVAAPSVFIFPPSDEQLKSGTASVVCLLNNFYPREAKVQWKVDNALQSGNSQESVTEQDSKDSTYSLSSTLTLSKADYEKHKVYACEVTHQGLSSPVTKSFNRGEC
notes: as for B1
In the case of B10, the EC50 with human CCR8 [1] worked out at 490 pM.

B11: PR004329 (antibody, human IgG1, kappa, V domains shown)
VH: EVQLVESGGGLVQPKGSLKLSCAASGFTFNTYAMNWVRQAPGKGLEWVARIRSKSNNYATYYADSVKDRFTISRDDSQSMLYLQMNNLKTEDTAMYYCVRGKEQGNYYAMDFWGQGTSVTVSA
VL: DIVMTQAAPSVPVTPGESVSISCRSSKSLLHSNGKIYLYWFLQRPGQSPQLLIYRMSNLASGVPDRFSGSGSGTAFTLRISRVEAEDVGVYYCMQHLEYPLTFGAGTKLEIKR
notes: as for B3
As for B11, the concentration for a half-maximal effect (EC50) with cynomolgus monkey CCR8 was determined as 410 pM; with human CCR8 [2], 170 pM.

B12: PR005332 (antibody, human IgG1, kappa)
heavy: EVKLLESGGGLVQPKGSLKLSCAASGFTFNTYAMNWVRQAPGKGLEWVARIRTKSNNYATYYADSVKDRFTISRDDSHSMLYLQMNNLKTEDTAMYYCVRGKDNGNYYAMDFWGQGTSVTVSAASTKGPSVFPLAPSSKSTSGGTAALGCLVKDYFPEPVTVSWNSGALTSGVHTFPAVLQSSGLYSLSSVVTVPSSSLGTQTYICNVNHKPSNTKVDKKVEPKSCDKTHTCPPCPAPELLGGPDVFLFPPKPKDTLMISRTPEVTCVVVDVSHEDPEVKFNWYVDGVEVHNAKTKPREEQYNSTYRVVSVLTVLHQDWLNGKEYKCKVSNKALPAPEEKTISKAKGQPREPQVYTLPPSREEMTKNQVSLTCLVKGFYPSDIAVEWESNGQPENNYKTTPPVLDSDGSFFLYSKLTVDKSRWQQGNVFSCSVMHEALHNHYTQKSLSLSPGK
light: DIVMTQAAPSVPVTPGESVSISCRSSKSLLHSNGNTYLYWFLQRPGQSPQLLIYRMSNLASGVPDRFSSSGSGTDFTLRISRVEAEDVGVYYCMQHLEYPFTFGAGTKLEIKRTVAAPSVFIFPPSDEQLKSGTASVVCLLNNFYPREAKVQWKVDNALQSGNSQESVTEQDSKDSTYSLSSTLTLSKADYEKHKVYACEVTHQGLSSPVTKSFNRGEC
notes: same VH/VL as PR005329, other heavy chain entry
As for B12, the EC50 in the experiment with human CCR8 [1] amounted to 630 pM.

B13: PR005335 (antibody, human IgG1, kappa, V domains shown)
VH: QVQLVQSGGGLVQPGGSLRLSCTASGFTFSYYWLSWVRQAPGKGLEWVANIKQDGSTTYYVDSVKGRFTISRDNAKNSLYLQMNSLRAEDTAVYYCARNWGFDYWGQGTLVTVSS
VL: not shown
notes: fully human, human IgG1 constant region
In the experiment with human CCR8 [1], B13 had an EC50 of 470 pM.

B14: PR005125 (antibody, human IgG1, kappa)
heavy: not shown
light: DIVMTQSPLSLSVTLGQPASISCRSSQSLVFSNGNTYLNWFQQRPGQSPRRLIYKVSKRDSGVPDRFSGSGSGTDFTLKISRVEAEDVGVYYCMQGTHWITFGQGTRLEIKRTVAAPSVFIFPPSDEQLKSGTASVVCLLNNFYPREAKVQWKVDNALQSGNSQESVTEQDSKDSTYSLSSTLTLSKADYEKHKVYACEVTHQGLSSPVTKSFNRGEC
notes: as for B13
In the experiment with human CCR8 [1], B14 gave a concentration for a half-maximal effect (EC50) of 440 pM.

B15: PR005128 (antibody, human IgG1, kappa)
heavy: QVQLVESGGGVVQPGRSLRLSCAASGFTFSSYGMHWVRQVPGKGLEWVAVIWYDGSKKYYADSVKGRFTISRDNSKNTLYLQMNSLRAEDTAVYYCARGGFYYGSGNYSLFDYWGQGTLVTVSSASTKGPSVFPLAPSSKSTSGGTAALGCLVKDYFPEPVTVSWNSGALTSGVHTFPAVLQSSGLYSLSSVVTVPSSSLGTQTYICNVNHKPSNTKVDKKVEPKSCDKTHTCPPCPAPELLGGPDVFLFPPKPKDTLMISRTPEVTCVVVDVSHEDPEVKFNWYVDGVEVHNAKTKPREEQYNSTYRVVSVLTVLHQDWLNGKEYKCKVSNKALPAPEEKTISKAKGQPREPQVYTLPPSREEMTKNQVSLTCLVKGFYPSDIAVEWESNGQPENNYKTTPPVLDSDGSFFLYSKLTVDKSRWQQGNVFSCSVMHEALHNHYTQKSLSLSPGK
light: DIVMTQSPLSLSVTLGQPASISCRSSQSLVFSNGNTYLNWFQQRPGQSPRRLIYKVSKRDSGVPDRFSGSGSGTDFTLKISRVEAEDVGVYYCMQGTHWITFGQGTRLEIKRTVAAPSVFIFPPSDEQLKSGTASVVCLLNNFYPREAKVQWKVDNALQSGNSQESVTEQDSKDSTYSLSSTLTLSKADYEKHKVYACEVTHQGLSSPVTKSFNRGEC
notes: fully human; same VH/VL as PR005125, other heavy chain entry
B15: a half-maximal response with human CCR8 [1] (EC50) required 370 pM.
